Experiments:
Assay in all cases: EMSA
[1] = test system: ZFP Clone 5 (BCTV L1 6-finger) (artificial); conditions: 10 mM Tris-HCl pH 7.5, 100 mM NaCl, 1 mM MgCl2, 0.1 mM ZnCl2, 1 mg/ml BSA, 10% glycerol, poly(dA-dT)2, on ice
[2] = test system: ZFP Clone 7 (6-finger) (artificial); conditions: probe flanks not given; 0.1 mM ZnCl2, 100 mM NaCl, on ice
[3] = test system: ZFP Clone 6 (6-finger) (artificial); conditions: probe flanks not given; 0.1 mM ZnCl2, 100 mM NaCl, on ice

## TATATATATTGGGTGCTTTGGGTGCTCTATATATA (double strand) [L1 19-bp target probe]
[1]
  Kd: < 3 pM

## TACGTGGCATTGGGTGCTC (double strand) [Clone 7 target]
[2]
  Kd: < 3 pM

## AGTAAGGTAGGAGATGATA (double strand) [Clone 6 target]
[3]
  Kd: < 3 pM
